Measured values as given in PMC7378745.

How the values were obtained:
Test in all cases: Tox-Luc (ToxR-TM-MBP) TM domain dimerisation assay in E. coli, luciferase read-out
[1] = biological target: YT/LL mutated human CD28 TM domain in the ToxLuc construct (ToxR-TM-MBP); conditions: parent: est. 23000; read off a plot
[2] = biological target: Y145L/T150L (YT/LL) mutated mouse CD28 TM domain in the ToxLuc construct (ToxR-TM-MBP); conditions: read off a plot
[3] = biological target: mutant GpA (G83I) TM domain in the ToxLuc construct (ToxR-TM-MBP); conditions: parent: est. 5500; read off a plot

WT human CD28 TM domain in the ToxLuc construct (ToxR-TM-MBP) YT/LL
response (Relative Light units) [1]: 2900

WT mouse CD28 TM domain in the ToxLuc construct (ToxR-TM-MBP) Y145L; T150L
response (Relative Light units) ([2]; parent: est. 2500): 270 | response (Relative Light units) ([2]; parent: est. 19000): 3100

wild type (WT) GpA TM domain in the ToxLuc construct (ToxR-TM-MBP) G83I
response (Relative Light units) [3]: 700
